One series has as its target Lys65 (UniProt position 66, AAGANKVAVIK). The following applies: Not stated. Ref 16 concerns affinity labelling of bL12 in situ on E. coli 70S ribosomes with a tRNA dialdehyde derivative.; cited from earlier work.
Series [1] deals with recombinant E. coli ribosomal protein bL12 (L12), C-terminally His-tagged, as purified: (L7/L12)2 (E. coli) (UniProt P0A7K2). Put plainly: SEC; Superdex 75 column, elution followed at 280 nm and 260 nm, column calibrated with protein markers; apparent molecular weight about 50 kDa; oligomer of 13 kDa chains.

By pKa is commonly meant the pH at which an ionisable group is half protonated. For orientation: stoichiometry N means a count of units in the complex or per binding partner.

In the case of “50S ribosomal protein bL12 (L7/L12) (Escherichia coli)”, the pKa with Lys65 is recorded as 7.2.
For the substance “recombinant E. coli ribosomal protein bL12 (L12), C-terminally His-tagged, as purified: (L7/L12)2 (from UniProt P0A7K2 1-121; P0A7K2 1-121) (natural protein)”, the stoichiometry N in series [1] was 4.

The values are drawn from publication PMC6110070.
